Results published in patent US20170306031A1 (NGM BIOPHARMACEUTICALS, published 2017).
Numbering of substitutions follows the chain as printed.

B1: antibody designated 8D8 (antibody, V domains shown)
VH: QVQLKESGPGLVAPSQSLSITCTVSGFSLSRYSVHWVRQPPGKGLEWLGMIWGFGSTDYNSALKSRLSITKDNSKSQFFLKMNSLQTDDTAMYYCARIHTTAGSYWGQGTLVTVSA
VL: DIVMTQSQKFMSTSIGDRVSVTCKASQNVGTNVAWYQQKPGQSPKALVYSTSYRYSGVPDRFTGSGSGTDFTLTISNVQSEDLAEYFCHQYNSYPLTFGAGTKLELK
notes: mouse hybridoma monoclonal
B2: antibody designated 25M22 (antibody, V domains shown)
VH: QVQLQQSGPDLVKPGASVKISCKASGYTFTSYWVNWMKQRPGKGLEWIGRIYPGDGDTNYNGKFKGKATLTADKSSSTAYMQLSSLTSEDSAVYFCARAYLLRLRRTGYYAMDYWGQGTSVTVSS
VL: DVVLTQTPLSLPVNIGDQASISCKSTKSLLNSDEFTYLDWYLQKPGQSPQLLIFLVSNRFSGVPDRFSGSGSGTDFTLKISRVEAEDLGVYYCFQSNYLPYTFGGGTKLEIK
notes: mouse hybridoma monoclonal
B3: antibody designated 19K19 (antibody, V domains shown)
VH: B2 VH with T28A, V34M, M37V
VL: B2 VL with F54Y
notes: mouse hybridoma monoclonal
B4: antibody designated 2B3 (antibody, V domains shown)
VH: EVKLVESGGGLVQPGGSLKLSCAASGFTFSDYFMFWVRQTPEKRLEWVAYISNDGDSTYYPDTVQGRFTISRDNAKNTLYLQMSRLRSEDTAMYYCTRQGAQATLDYWGQGTTLTVSS
VL: QIVLTQSPAIMSASLGEEITLTCSASSSVFYMHWYQQKSGTSPKLLIYSTSNLASGIPSRFSGSGSGTFYSLTISSVEAEDAADYYCHQWSSTFGGGTKLEIK
B5: antibody designated 12A3 (antibody, V domains shown)
VH: QIQLVQSGPELKKPGETVKISCKASGYPFTIYGMNWVEQAPGKGLKWMGWINTYSGVPTYADDFKGRFAFSLETSASTAYLQINNLKDEDTATYFCASATGNYWGQGTTLTVSS
VL: DIQMTQSPSSLSASLGERVSLTCRASQDIGSSLNWLQQEPDGTIKRLIYATSSLDSGVPKRFSGSRSGSDYSLTISSLESEDFVDYYCLQYASSPYTFGGGTKVEIK
notes: mouse hybridoma monoclonal
B6: antibody designated 1C1 (antibody, V domains shown)
VH: QMQLKQSGPGLVQPSQSLSITCTVSGFSLNDYGVHWIRQSPGKGLEWLGVIWSGGRTDYNAAFISRLSISKDNSKSQVFFKMSSLQPQDTAIYYCARWALYFLYGGSMDYWGQGTSVTVSS
VL: DVVLTQTPLSLPVSPGDQASISCRSSQSLVHSSGITYLHWYLQKPGQSPKLLIYKLSNRFSGVPDRFSGSGSGTDFTLKISRVEAEDLGVYFCSQSTHVPPWTFGGGTKLEIK
notes: mouse hybridoma monoclonal
B7: antibody designated 2A9 (antibody, V domains shown)
VH: EVKLVESGGGLVKPGGSLKLSCAASGFTFSTYAMSWVRQTPEKRLEWVASITSGGTTYYTDSVKGRFTISRDNARNILYLQMSSLRSEDTAMYYCARDGNFYYYGMDYWGQGTSVTVSS
VL: DIVMTQSQKFMSTSVGDRVSITCKASQNVGTAVAWYQQKPGQSPKILIYSASNRFTGVPDRFTGSGSGTDFTLTISNMQSEDLADYFCQQYSSYFTFGGGTKLELK
notes: mouse hybridoma monoclonal
B8: antibody designated 5A20 (antibody, V domains shown)
VH: QVQLQQSGPELMKPGASVILSCKAIGYTFTDYWIEWVKERPGHGLEWIGEILLGSDSIHFNEKFKGKATISADTSSNTAYMQLSSLTTEDSAIYYCVRQDWNWYFDVWGTGTTVTVSS
VL: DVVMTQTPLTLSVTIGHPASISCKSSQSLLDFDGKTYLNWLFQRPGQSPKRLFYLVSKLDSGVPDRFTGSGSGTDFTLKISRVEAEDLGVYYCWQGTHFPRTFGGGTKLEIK
notes: mouse hybridoma monoclonal
B9: antibody designated 24G2 (antibody, V domains shown)
VH: QVQLQQSGAELLKPGASVKLSCKASGYTFTTYWMHWVKQRPGQGLEWIGMIHPNSGSSNYNEKFKNKATLTVDKSSSTAYMQLSSLTSEDSAVYFCARSDYGFIPYFDYWGQGTTLTVSS
VL: DILLTQSPAILSVSPGERVSFSCRASQSIGTSIHWYQQRTNGSPRLLIKYASESISGIPSRFSGSGSGTDFTLIINSVESEDIADYYCQQSNSWPTFTFGAGTKLELK
notes: mouse hybridoma monoclonal
B10: antibody designated 2B8 (antibody, V domains shown)
VH: QIQLVQSGPELKKPGETVKISCKASGYTFTTYGMSWVKQAPGKIFKWMGWINTYSGVPTFVDDFRGRFAFSLETSASTAYLQIGNLKNEDTATYFCARRSSYYPYWYFDVWGTGTTVTVSS
VL: DIQMTQSPASLSASVGETVTITCRPSENIYSYLTWFQQEQGKSPQLLVYNAQTLAEGVPSRFSGSGSGTHFSLKINSLQPEDFGTYYCQHYYGYPFTFGSGTKLEIK
notes: mouse hybridoma monoclonal
B11: antibody designated 22N5 (antibody, V domains shown)
VH: QNQLVQSGPELKKPGEIVKISCKTSGYTFTDYSMHWVKKTPGKGFKWMGWINTETGEPTYADDFKGRFAFSLETSANTAHLQITNLKNEDTATYFCVKGTLNYWGQGTTLTVSS
VL: DIKMTQSPSSMYASLGERVTITCKASQDIKSYLNWFQQKPGKSPKTLIYRTKRLVDGVPSRFSGSGSGQDYSLTVSSLEYDDVGIYYCLQYVEFPLTFGDGTKLELK
notes: mouse hybridoma monoclonal

The binders below were run against T1, mouse GFRAL expressed on cells (mouse, UniProt Q6SJE0 20-393) (assay: cell-based or functional assay).
T1 sequence: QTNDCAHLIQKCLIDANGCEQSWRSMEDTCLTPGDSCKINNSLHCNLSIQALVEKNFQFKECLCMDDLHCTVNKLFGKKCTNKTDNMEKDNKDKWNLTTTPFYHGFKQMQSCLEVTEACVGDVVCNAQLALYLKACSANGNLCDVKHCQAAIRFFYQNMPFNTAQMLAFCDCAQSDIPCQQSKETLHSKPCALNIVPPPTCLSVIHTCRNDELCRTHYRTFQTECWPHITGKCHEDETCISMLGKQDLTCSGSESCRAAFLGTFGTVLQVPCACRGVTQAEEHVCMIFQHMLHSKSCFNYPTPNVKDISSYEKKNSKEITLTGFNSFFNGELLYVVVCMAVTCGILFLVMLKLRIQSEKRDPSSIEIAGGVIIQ

Binder | IC50, ELK1-luciferase reporter (mGFRAL/mRET)
B1 | 1.42 nM
B2 | 1.11 nM
B3 | 0.895 nM
B4 | 7.76 nM
B5 | 0.933 nM
B6 | 1.19 nM
B7 | 7.87 nM
B8 | 0.6 nM
B9 | 8.32 nM
B10 | 2.45 nM
B11 | 2.6 nM

Each binder was assayed against T2, human GFRAL expressed on cells (human, UniProt Q6UXV0 20-394) (assay: cell-based or functional assay).
T2 sequence: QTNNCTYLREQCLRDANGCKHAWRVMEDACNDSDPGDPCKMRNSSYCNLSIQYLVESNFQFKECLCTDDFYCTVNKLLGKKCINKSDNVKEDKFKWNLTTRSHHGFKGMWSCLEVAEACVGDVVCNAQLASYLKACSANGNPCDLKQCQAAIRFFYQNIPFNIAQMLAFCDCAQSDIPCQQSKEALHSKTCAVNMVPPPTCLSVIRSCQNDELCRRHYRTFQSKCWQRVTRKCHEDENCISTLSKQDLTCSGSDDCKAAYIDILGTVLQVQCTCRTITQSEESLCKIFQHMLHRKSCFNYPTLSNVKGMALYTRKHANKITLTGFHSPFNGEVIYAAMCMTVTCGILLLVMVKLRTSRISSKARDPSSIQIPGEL

Binder | IC50, ELK1-luciferase reporter (hGFRAL/hRET)
B1 | 2.11 nM
B2 | 2.89 nM
B3 | 3.88 nM
B4 | 7.12 nM
B5 | 4.99 nM
B6 | 8.64 nM
B7 | 3.71 nM
B8 | 3.19 nM
B9 | 18.9 nM
B10 | 1.92 nM
B11 | 7.74 nM

Target: T2, human GFRAL expressed on cells
Test: cell-based or functional assay
Remark: another data set of the same source

Binder | IC50, ERK phosphorylation in U2OS hGFRAL/hRET cells
B1 | 0.63 nM
B2 | 0.53 nM
B3 | 0.61 nM
B4 | 1.48 nM
B5 | 0.54 nM
B6 | 0.61 nM
B7 | 0.94 nM
B8 | 1.8 nM
B9 | 1.86 nM
B10 | 0.22 nM
B11 | 0.9 nM

The binders below were run against T3, human GFRAL (analyte in Biacore assays) (human, UniProt Q6UXV0 19-351, limits assumed) (assay: Biacore SPR, antibody captured, GFRAL injected).
T3 construct: injected in solution over captured antibody; also called hGFRAL
T3 sequence: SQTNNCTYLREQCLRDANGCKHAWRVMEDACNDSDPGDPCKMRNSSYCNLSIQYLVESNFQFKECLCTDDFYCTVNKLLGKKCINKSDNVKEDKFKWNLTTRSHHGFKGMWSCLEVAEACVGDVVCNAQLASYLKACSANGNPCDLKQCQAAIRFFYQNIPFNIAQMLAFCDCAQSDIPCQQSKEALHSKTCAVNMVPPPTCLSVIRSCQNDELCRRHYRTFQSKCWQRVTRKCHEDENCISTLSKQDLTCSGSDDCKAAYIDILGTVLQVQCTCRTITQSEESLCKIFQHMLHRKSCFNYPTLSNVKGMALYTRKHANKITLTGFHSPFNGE
Description: (§1) In addition, the binding affinity of antibodies to human and mouse GFRAL were measured. For example, antibodies were rank ordered based on their binding affinity to human GFRAL and mouse GFRAL by low resolution KD measurement by Biacore. Briefly, an anti-mouse Fc antibody (Sigma-Aldrich, St. Louis, Mo.) was immobilized on all four flow cells of a CM5 chip using amine coupling reagents (GE Healthcare LifeSciences, Piscataway, N.J.). Purified antibodies were captured (˜100 RUs) on flow cells 2, 3 and 4 using flow cell 1 as a reference. This was followed by injection of human or mouse GFRAL (25 nM in PBS-P buffer) at a flow rate of 70 μL/m in and monitoring the binding kinetics at 25° C.
(§2) Binding affinity measurements were also made in additional Biacore based assays. For example, equilibrium dissociation constant (KD) measurements were carried out with purified antibodies to evaluate their binding to human GFRAL or mouse GFRAL. As mentioned above, anti-mouse Fc antibody (Sigma-Aldrich, St. Louis, Mo.) was immobilized on all four flow cells of a CM5 chip using amine coupling reagents (GE Healthcare LifeSciences, Piscataway, N.J.). Purified antibodies were captured (˜100 RUs) on flow cells 2, 3 and 4 using flow cell 1 as a reference. This was followed by injection of human or mouse GFRAL in PBS-P buffer) at a flow rate of 70 μL/min and the binding kinetics were evaluated at 25° C.

Binder | Kd | koff
B1 | 0.46 nM | 0.000124 s⁻¹
B2 | < 0.1 nM | ~1e-05 s⁻¹
B3 | 0.21 nM | 0.000135 s⁻¹
B5 | < 0.1 nM | ~1e-05 s⁻¹
B6 | < 0.1 nM | 
B7 | 0.25 nM | 0.000153 s⁻¹
B8 | 0.081 nM | 3.32e-05 s⁻¹
B9 | 1.4 nM | 0.000696 s⁻¹
B10 | 0.73 nM | 
B11 | 0.21 nM | 0.000132 s⁻¹

These binders were tested against T4, mouse GFRAL (analyte in Biacore assays) (mouse, UniProt Q6SJE0 20-349, limits assumed) (assay: Biacore SPR, antibody captured, GFRAL injected).
T4 construct: injected in solution over captured antibody
T4 sequence: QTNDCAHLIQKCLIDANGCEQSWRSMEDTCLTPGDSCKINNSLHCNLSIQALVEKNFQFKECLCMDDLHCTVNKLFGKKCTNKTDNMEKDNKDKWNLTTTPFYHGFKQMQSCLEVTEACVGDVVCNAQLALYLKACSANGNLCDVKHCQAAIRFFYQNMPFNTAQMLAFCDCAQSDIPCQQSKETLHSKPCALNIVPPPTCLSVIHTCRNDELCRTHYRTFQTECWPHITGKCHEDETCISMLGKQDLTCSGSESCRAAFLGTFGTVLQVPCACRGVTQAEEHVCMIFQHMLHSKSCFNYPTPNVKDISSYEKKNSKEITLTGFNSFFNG
Description: as §1, §2

Binder | Kd | koff
B1 | 8.17 nM | 0.00281 s⁻¹
B2 | 4.2 nM | 0.0001 s⁻¹
B3 | 4.7 nM | 0.0034 s⁻¹
B5 | 5.7 nM | 0.00216 s⁻¹
B6 | 3.68 nM | 0.0025 s⁻¹
B7 | 3.6 nM | 0.0029 s⁻¹
B8 | < 0.1 nM | 0.0004 s⁻¹
B9 | 5.02 nM | 0.00173 s⁻¹
B10 | 3.76 nM | 0.013 s⁻¹
B11 | 3.47 nM | 0.000943 s⁻¹
